{"source": "patent US12295987B2", "about": "“Method of using a GIP/GLP1 co-agonist for diabetes” (Eli Lilly and Company, priority 2018, dated 2025)"}
{"biological_target": "T1, human gastric inhibitory peptide receptor (hGIPR) (Homo sapiens, UniProt P48546)", "T1 construct": "expressed in transfected cells; host or cells: HEK293", "T1 sequence (P48546 22-466)": "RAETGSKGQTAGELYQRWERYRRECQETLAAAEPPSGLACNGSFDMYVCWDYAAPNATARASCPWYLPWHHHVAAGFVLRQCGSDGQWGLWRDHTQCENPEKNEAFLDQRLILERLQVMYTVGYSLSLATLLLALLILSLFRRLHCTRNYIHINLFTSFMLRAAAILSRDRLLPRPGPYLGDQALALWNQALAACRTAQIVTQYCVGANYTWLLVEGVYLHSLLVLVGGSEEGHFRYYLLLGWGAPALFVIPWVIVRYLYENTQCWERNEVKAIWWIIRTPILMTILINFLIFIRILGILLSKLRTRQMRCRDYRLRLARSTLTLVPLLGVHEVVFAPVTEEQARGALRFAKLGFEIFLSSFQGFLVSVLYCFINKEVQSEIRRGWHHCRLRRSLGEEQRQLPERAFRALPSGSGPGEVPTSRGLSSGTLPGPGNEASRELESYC", "test": "cAMP pharmacological functional assay in presence of 0.1% casein, hGIPR", "type": "cell-based", "details": "ratio of hGIPR to hGLP1R cAMP EC50 ratios"}
{"substance": "Y-Aib-EGT-αMeF(2F)-TSDYSI-Aib-LD-Orn-K((2-[2-(2-Amino-ethoxy)-ethoxy]-acetyl)2-(Glu)-CO—(CH2)16—CO2H)AQ-Aib-EFI-(D-Glu)-YLIEGGPSSGAPPPS-NH2 (YXEGTXTSDYSIXLDXKAQXEFIXYLIEGGPSSGAPPPS; Aib, Orn, αMeF(2F), lipidated Lys, D-Glu, amide; (2)..(2) Xaa at position 2 is Aib; (6)..(6) Xaa at position 6 is alpha-methyl-Phe(2F); (13)..(13) Xaa at position 13 is Aib; (16)..(16) Xaa at position 16 is Orn; MOD_RES (17)..(17) Lys at position 17 is chemically modified by conjugation of the epsilon-amino group of the Lys side chain with (2-[2-(2-amino-ethoxy)-ethoxy]-acetyl)2-(gamma-Glu)-CO-(CH2)16- CO2H; (20)..(20) Xaa at position 20 is Aib;) [Peptide 247]", "[hGIPR/hGLP1R] EC50 Ratio": 4.20}
{"substance": "Y-Aib-EGT-αMeF(2F)-TSDYSI-Aib-LD-Orn-K((2-[2-(2-Amino-ethoxy)-ethoxy]-acetyl)2-(γGlu)-CO—(CH2)18—CO2H)AQ-Aib-EFI-(D-Glu)-YLIEGGPSSGAPPPS-NH2 (YXEGTXTSDYSIXLDXKAQXEFIXYLIEGGPSSGAPPPS; Aib, Orn, αMeF(2F), lipidated Lys, D-Glu, amide; (2)..(2) Xaa at position 2 is Aib; (6)..(6) Xaa at position 6 is alpha-methyl-Phe(2F); (13)..(13) Xaa at position 13 is Aib; (16)..(16) Xaa at position 16 is Orn; MOD_RES (17)..(17) Lys at position 17 is chemically modified by conjugation of the epsilon-amino group of the Lys side chain with (2-[2-(2-amino-ethoxy)-ethoxy]-acetyl)2-(gamma-Glu)-CO-(CH2)18- CO2H; (20)..(20) Xaa at position 20 is Aib;) [Peptide 250]", "[hGIPR/hGLP1R] EC50 Ratio": 4.34}
{"substance": "Y-Aib-EGT-αMeF(2F)-TSDYSI-Aib-LDEK((2-[2-(2-Amino-ethoxy)-ethoxy]-acetyl)2-(γGlu)-CO—(CH2)18—CO2H)AQ-Aib-EFI-(D-Glu)-YLIEGGPSSGAPPPS-NH2 (YXEGTXTSDYSIXLDEKAQXEFIXYLIEGGPSSGAPPPS; Aib, αMeF(2F), D-Glu; lipidated K; amide; (2)..(2) Xaa at position 2 is Aib; (6)..(6) Xaa at position 6 is alpha-methyl-Phe(2F); (13)..(13) Xaa at position 13 is Aib; MOD_RES (17)..(17) Lys at position 17 is chemically modified by conjugation of the epsilon-amino group of the Lys side chain with (2-[2-(2-amino-ethoxy)-ethoxy]-acetyl)2-(gamma-Glu)-CO-(CH2)18- CO2H; (20)..(20) Xaa at position 20 is Aib; (24)..(24) Xaa at position 24 is D-Gl) [Peptide 224]", "[hGIPR/hGLP1R] EC50 Ratio": 3.32}
{"substance": "Y-Aib-EGT-αMeF(2F)-TSDYSI-Nle-LD-Orn-K((2-[2-(2-Amino-ethoxy)-ethoxy]-acetyl)2-(γGlu)-CO—(CH2)16—CO2H)AQ-Aib-EFI-(D-Glu)-YLIEGGPSSGAPPPS-NH2 (YXEGTXTSDYSIXLDXKAQXEFIXYLIEGGPSSGAPPPS; Aib, Nle, Orn, αMeF(2F), lipidated Lys, D-Glu, amide; (2)..(2) Xaa at position 2 is Aib; (6)..(6) Xaa at position 6 is alpha-methyl-Phe(2F); (13)..(13) Xaa at position 13 is Nle; (16)..(16) Xaa at position 16 is Orn; MOD_RES (17)..(17) Lys at position 17 is chemically modified by conjugation of the epsilon-amino group of the Lys side chain with (2-[2-(2-amino-ethoxy)-ethoxy]-acetyl)2-(gamma-Glu)-CO-(CH2)16- CO2H; (20)..(20) Xaa at position 20 is Aib;) [Peptide 249]", "[hGIPR/hGLP1R] EC50 Ratio": 4.94}
{"substance": "Y-Aib-EGT-αMeF(2F)-TSDYSI-αMeL-LD-Dab-K((2-[2-(2-Amino-ethoxy)-ethoxy]-acetyl)2-(γGlu)-CO—(CH2)16—CO2H)AQ-Aib-EFI-(D-Glu)-YLIEGGPSSGAPPPS-NH2 (YXEGTXTSDYSIXLDXKAQXEFIXYLIEGGPSSGAPPPS; Aib, αMeF(2F), αMeL, Dab, D-Glu; lipidated K; amide; (2)..(2) Xaa at position 2 is Aib; (6)..(6) Xaa at position 6 is alpha-methyl-Phe(2F); (13)..(13) Xaa at position 13 is alpha-methyl-Leu; (16)..(16) Xaa at position 16 is Dab; MOD_RES (17)..(17) Lys at position 17 is chemically modified by conjugation of the epsilon-amino group of the Lys side chain with (2-[2-(2-amino-ethoxy)-ethoxy]-acetyl)2-(gamma-Glu)-CO-(CH2)16- CO2H; (20)..(20) Xaa at positi) [Peptide 209]", "[hGIPR/hGLP1R] EC50 Ratio": 5.12}
{"substance": "Y-Aib-EGT-αMeF(2F)-TSDYSI-αMeL-LD-Dab-K((2-[2-(2-Amino-ethoxy)-ethoxy]-acetyl)2-(γGlu)-CO—(CH2)18—CO2H)AQ-Aib-EFI-(D-Glu)-YLIEGGPSSGAPPPS-NH2 (YXEGTXTSDYSIXLDXKAQXEFIXYLIEGGPSSGAPPPS; Aib, αMeF(2F), αMeL, Dab, D-Glu; lipidated K; amide; (2)..(2) Xaa at position 2 is Aib; (6)..(6) Xaa at position 6 is alpha-methyl-Phe(2F); (13)..(13) Xaa at position 13 is alpha-methyl-Leu; (16)..(16) Xaa at position 16 is Dab; MOD_RES (17)..(17) Lys at position 17 is chemically modified by conjugation of the epsilon-amino group of the Lys side chain with (2-[2-(2-amino-ethoxy)-ethoxy]-acetyl)2-(gamma-Glu)-CO-(CH2)18- CO2H; (20)..(20) Xaa at positi) [Peptide 217]", "[hGIPR/hGLP1R] EC50 Ratio": 2.99}
{"substance": "Y-Aib-EGT-αMeF(2F)-TSDYSI-αMeL-LD-Dap-K((2-[2-(2-Amino-ethoxy)-ethoxy]-acetyl)2-(γGlu)-CO—(CH2)16—CO2H)AQ-Aib-EFI-(D-Glu)-YLIEGGPSSGAPPPS-NH2 (YXEGTXTSDYSIXLDXKAQXEFIXYLIEGGPSSGAPPPS; Aib, αMeF(2F), αMeL, Dap, D-Glu; lipidated K; amide; (2)..(2) Xaa at position 2 is Aib; (6)..(6) Xaa at position 6 is alpha-methyl-Phe(2F); (13)..(13) Xaa at position 13 is alpha-methyl-Leu; (16)..(16) Xaa at position 16 is Dap; MOD_RES (17)..(17) Lys at position 17 is chemically modified by conjugation of the epsilon-amino group of the Lys side chain with (2-[2-(2-amino-ethoxy)-ethoxy]-acetyl)2-(gamma-Glu)-CO-(CH2)16- CO2H; (20)..(20) Xaa at positi) [Peptide 210]", "[hGIPR/hGLP1R] EC50 Ratio": 5.24}
{"substance": "Y-Aib-EGT-αMeF(2F)-TSDYSI-αMeL-LD-Dap-K((2-[2-(2-Amino-ethoxy)-ethoxy]-acetyl)2-(γGlu)-CO—(CH2)18—CO2H)AQ-Aib-EFI-(D-Glu)-YLIEGGPSSGAPPPS-NH2 (YXEGTXTSDYSIXLDXKAQXEFIXYLIEGGPSSGAPPPS; Aib, αMeF(2F), αMeL, Dap, D-Glu; lipidated K; amide; (2)..(2) Xaa at position 2 is Aib; (6)..(6) Xaa at position 6 is alpha-methyl-Phe(2F); (13)..(13) Xaa at position 13 is alpha-methyl-Leu; (16)..(16) Xaa at position 16 is Dap; MOD_RES (17)..(17) Lys at position 17 is chemically modified by conjugation of the epsilon-amino group of the Lys side chain with (2-[2-(2-amino-ethoxy)-ethoxy]-acetyl)2-(gamma-Glu)-CO-(CH2)18- CO2H; (20)..(20) Xaa at positi) [Peptide 218]", "[hGIPR/hGLP1R] EC50 Ratio": 4.34}
{"substance": "Y-Aib-EGT-αMeF(2F)-TSDYSI-αMeL-LD-Orn-K((2-[2-(2-Amino-ethoxy)-ethoxy]-acetyl)2-(γGlu)-CO—(CH2)16—CO2H)AQ-Aib-EFI (D-Glu)-αMeY-LIEGGPSSGAPPPS-NH2 (YXEGTXTSDYSIXLDXKAQXEFIXXLIEGGPSSGAPPPS; Aib, Orn, αMe residues, lipidated Lys, D-Glu, amide; (2)..(2) Xaa at position 2 is Aib; (6)..(6) Xaa at position 6 is alpha-methyl-Phe(2F); (13)..(13) Xaa at position 13 is alpha-methyl-Leu; (16)..(16) Xaa at position 16 is Orn; MOD_RES (17)..(17) Lys at position 17 is chemically modified by conjugation of the epsilon-amino group of the Lys side chain with (2-[2-(2-amino-ethoxy)-ethoxy]-acetyl)2-(gamma-Glu)-CO-(CH2)16- CO2H; (20)..(20) Xaa at positi) [Peptide 236]", "[hGIPR/hGLP1R] EC50 Ratio": 4.10}
